Source: the supplement of paper PMC9170038

Test system: MS2 coat protein
Experiment: apparent KD of MS2 coat protein; designed switch direction (-1 OFF switch, 1 ON switch): -1; higher = weaker reporter binding
Method in brief: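 On Illumina chips, designed RNA switches with common flanks were made by stalled E. coli RNA polymerase. Titrations with SNAP-549-labelled MS2 coat protein, doubling from 0.7 or 1.5 nM to 3 µM, were done with no input, with 200 uM small-molecule ligand, or with an oligonucleotide input. Apparent KD is the median per design over clusters, from curve fits of normalised cluster fluorescence.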

[1] = Eterna round: R95, input ligand: microRNA oligo, concentration not stated
[2] = Eterna round: R95, input ligand: FMN 200 uM
[3] = Eterna round: R95, input ligand: none
[4] = input ligand: microRNA oligo, concentration not stated

Sequence	apparent KD of MS2 coat protein [1]	apparent KD of MS2 coat protein [2]	apparent KD of MS2 coat protein [3]	apparent KD of MS2 coat protein (input ligand: FMN 200 uM)	apparent KD of MS2 coat protein (input ligand: none)	apparent KD of MS2 coat protein [4]
GGAUCGAAUGUGAGGAUAUACCACUGGAUACAGUGGUAGAAGGCACAUGAGGAUCACCCAUGUCCUUACGAUCC [Fiskers BMX 4 - 47] (puzzle: Brourd's mod of Exclusion 4)	74.2 nM	–	–	–	–	–
AUGGUCCGAGGAUAUAUUAUGUGAUACAUGAGGAUCACCCAUGUUAUAUGAUGGAUGUUAGUAGAAGGCGGACUAC [salish99_ex5_r3_002] (puzzle: Exclusion 5)	82.2 nM	89.3 nM	103 nM	–	–	–
GUUUAGUGAGGAUAUGUGGCUUCGAUCGUGCGCGGUCUGCUACAGAAGGCACAUGAGGAUCACCCAUGUUCCUC [salish99_ex4_r4_308] (Eterna round: R97, puzzle: Exclusion 4)	–	–	–	579 nM	123 nM	–
AGCGAAUGAGGAUAUUAUCUCACCUACAUGAGGAUCACCCAUGUGGUCGCACCUGGCGAGUGAGAAGGCAUUCGGA [Eternabot (Original) Solution 41] (Eterna round: R97, puzzle: Exclusion 5)	–	–	–	112 nM	49.8 nM	–
AAGUACUACAAGCUUAGGGACAUGAGGAUCACCCAUGUUCGUCUUAUUGAUCUAGGUACGCUGACGUACCUAGAUCA [Mat - Sensor v3 - turn-off var 1 - JL Mod - D10] (puzzle: Sensor v3, turn-off variant 1)	44.5 nM	16.2 nM	15.5 nM	–	–	–
CUUUUGUGAGGAUAUCAGGUGUGCUAGCGUACUGGUACAUCUGAGAAGGCACAUGAGGAUCACCCAUGUUUCUU [JL-ex4-3.19 Brourd mod] (puzzle: Exclusion 4)	27.1 nM	–	–	–	–	–
GAAAAGGUAGGAUAUACGAAAAAAAAGGGUAGAAAAAAAAAACAUGAGGAUCACCCAUGUAGAAGGACCAAAAG [salish99_ex2_r3_059] (puzzle: Exclusion 2)	26.6 nM	134 nM	13.7 nM	–	–	–
CGUUCCACAGGAUAUACAAAACGUAUCCCAGGGCUAACAGGACAUGAGGAUCACCCAUGUAGAAGGGUGGAACU [Eternabot (L1) Solution 36] (Eterna round: R97, puzzle: Exclusion 2)	–	–	–	571 nM	674 nM	–
GACAGCGGAGGAUAUGCCGUAGAUUACAUGAGGAUCACCCAUGUGGGCUGUAAGUAAUAGGCAGAAGGCUGCCGUU [Eternabot (Original) Solution 33] (Eterna round: R97, puzzle: Exclusion 5)	–	–	–	144 nM	109 nM	–
GAUCCGUUAGGAUAUACAGGAUUCACGCCUGAGUGAAUGUAGUAGAAGGAACAUGAGGAUCACCCAUGUGGUAU [Eternabot (L1) Solution 85] (Eterna round: R97, puzzle: Exclusion 4)	–	–	–	83.2 nM	40.5 nM	–
CUCAUGUUGGAGGAUAUAUUUGUCAACCGACCGAUAGAAGGCCACACAUGAGGAUCACCCAUGUCAUCCGGAGA [Eternabot (Original) Solution 50] (Eterna round: R97, puzzle: Exclusion 6)	–	–	–	28.3 nM	255 nM	–
ACAACAAGCUUUUUGUUCGUAGAACAUGAUGCUCUAGUCACAUGAGGAUCACCCAUGUCAACCAGAUAGAUAGUUGA [JR_SV3TOV2_Sub063] (puzzle: Sensor v3, turn-off variant 2)	143 nM	53.1 nM	50.4 nM	–	–	–
AGGUGAGCCGUCAGGAUAUGCGUUCCGUAGGGUCAGCAGAAGGGACAUGAGGAUCACCCAUGUUUCGCACGUGG [Veraxedi] (puzzle: Brourd's mod of Exclusion 4)	31 nM	–	–	–	–	–
CAGUACAGAGGAUAUACAUGAGGAUCACCCAUGUGUAGCAGCUAGGAGACUAGCGCAUGUAGAAGGCUGUACUG [jl-ex3-4.31 salish99 mod] (Eterna round: R97, puzzle: Exclusion 3)	–	–	–	129 nM	21.3 nM	–
GUCAGCUCGUCAGGAUAUACAUGCGUGCUUCGGCACGUAUGAUAGAUCACAUGAGGAUCACCCAUGUAGAAGGGACGAGCUGAC [ENG2/4-B1] (Eterna round: R96, puzzle: Exclusion NG 2)	–	–	–	13.2 nM	12.5 nM	9.92 nM
CGUUGAUGAGGAUAUCGAUGUUAGUACAUGAGGAUCACCCAUGUUAUCCAAGUGUCGUUUCGAGAAGGUAUUGGAC [LRO-Ex5-20] (puzzle: Exclusion 5)	174 nM	–	–	–	–	–
AGUACUAACACGAAAGUGUUAGUACAAUAAGCUAGUGGAACAUGAGGAUCACCCAUGUCCUCAUUAGCUCGUCUUGG [Mat - Sensor v3 - Turn-off var 2 - D40] (puzzle: Sensor v3, turn-off variant 2)	19.6 nM	16.4 nM	14.6 nM	–	–	–
GGUCAAGAACAGCUCCGCGCUGCCCUCGACCGCUCAUUUACAUGAGGAUCACCCAUGUUUUUUGCUUGUCUUGUUAC [Usvetive] (puzzle: Sensor v3, turn-off variant 2)	91.8 nM	16.9 nM	16.5 nM	–	–	–
AGUAACAGAGGAUAUACUAUUUUAUGUGUUUAUUGUUUUGAACAUGAGGAUCACCCAUGUAGAAGGCUGAAUAA [JMF 95] (puzzle: Exclusion 2)	24.5 nM	–	–	–	–	–
GUAAAACAUGAGGAUCACCCAUGUCAGGAUAUACGAUUCCACCCUAACUGCGUGGAACGUAGAAGGGACAUAGG [Exclusion 1 (MOD6.1 Esqu)] (Eterna round: R97, puzzle: Exclusion 1)	–	–	–	57.9 nM	221 nM	–
CUAGGGCACAAUUAAGCGCCCUAACAUGAGGAUCACCCAUGUCAGGAUAUGUAGGCAAAGACCCUACAGAAGGGACAUGUCCUA [Artileza] (Eterna round: R96, puzzle: Exclusion NG 3)	–	–	–	393 nM	69.2 nM	46.3 nM
AACAUGUAAGGAUAUAAAAGAAGGAGUACAAAGCCCUCCUAUUAGAAGGUACAUGAGGAUCACCCAUGUGGCGG [Eternabot (L2) Solution 96] (Eterna round: R97, puzzle: Exclusion 4)	–	–	–	336 nM	57.1 nM	–
AAGAAACAUGAGGAUCACCCAUGUGAGGAUAUGACCAAGAAAAGAAAAGAAAGAAGAUUCAGAAGGCACAAAGG [salish99-ex1_r3_060] (puzzle: Exclusion 1)	29.9 nM	49.7 nM	40.7 nM	–	–	–
